Measurements as given in US6221617A, “Bioassay for growth hormone releasing hormone” (priority 1997, dated 2001).
Like-named read-outs stand apart in the source and are kept apart here.

Experiments:
[1] = tested on: rat anterior pituitary cell cultures; assay: Rat primary anterior pituitary cell bioassay (GH release, radioimmunoassay); format: cell-based
Experimental: Rat anterior pituitary cell cultures were prepared for measuring the biological activity of GHRH, GHRH-induced release of GH was quantified using radioimmunoassay. Anterior pituitaries from fifteen female Sprague-Dawley rats were placed in a solution of Gey's media supplemented with 1% BSA, 0.25% glucose, and 0.2 mM MEM non essential amino acids at pH 7.4. Cell dispersion was performed in a solution of 400 U/ml trypsin in supplemented Gey's media for 30 minutes, 1750 KU/ml DNase-I in supplemented Gey's media for 5 minutes, and cells were triturated 15-30 times in 0.6 mg/ml lima bean trypsin inhibitor in supplemented Gey's media. Cells were filtered thru 160 u and 100 u mesh and centrifuged for 3 minutes at 1100 RPM and 12 minutes at 1600 rpm. Cell pellet was suspended at 3×10^5 cells/ml in DMEM supplemented with 10% fresh rat serum, 3% horse serum, 2.5% fetal calf serum, 2% Antibiotic-Antimycotic, 0.3% Fungizone, 0.45% glucose, 25 mM Hepes, 4 mM glutamine, 1 mM sodium pyruvate, 1 nM 3,3',5-triiodo-L -thyronine (T3), 100 nM dexamethazone and 10 uM MEM non essential amino acids. Cells were plated at 1 ml/well in 24 well plates and incubated at 8% CO2 at 37 C. for 68-72 hours. To stimulate cells with hormones, cells were washed three times in Gey's media supplemented with 1% BSA, 0.45% glucose and 25 mM Hepes. GHRH (1-44)NH2 was added to cells in 1 ml of supplemented Gey's media and cells were incubated for 3 hours before collecting media. Rat growth hormone levels were quantitated using a radioimmunoassay kit (Amersham).
(§1) Predicted variances in SEAP responses=0.32×(Y)^154.

[2] = target: T1, porcine GHRH receptor (Sus scrofa, UniProt P34999)
T1 sequence (P34999 23-423): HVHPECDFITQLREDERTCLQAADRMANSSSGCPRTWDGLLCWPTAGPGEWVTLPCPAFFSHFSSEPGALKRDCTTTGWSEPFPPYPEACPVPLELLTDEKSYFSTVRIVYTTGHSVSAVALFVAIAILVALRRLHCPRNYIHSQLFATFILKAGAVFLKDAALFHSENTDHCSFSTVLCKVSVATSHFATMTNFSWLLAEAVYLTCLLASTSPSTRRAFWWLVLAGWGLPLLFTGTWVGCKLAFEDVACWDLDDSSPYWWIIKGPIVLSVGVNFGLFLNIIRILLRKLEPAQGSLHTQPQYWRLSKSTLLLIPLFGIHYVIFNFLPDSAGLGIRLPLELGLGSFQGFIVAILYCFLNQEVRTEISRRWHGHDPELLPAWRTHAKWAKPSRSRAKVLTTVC
Experimental: Assays for secreted alkaline phosphatase (SEAP) were performed using the chemiluminescent substrate in the Great Escape Detection Kit (Clontech). Culture medium was centrifuged at 14000 rpm in a microfuge centrifuge to remove cell debris. One hundred microliters of culture medium was then added to 300 ul of dilution buffer and heated at 65 C. for 30 minutes. Samples were cooled to room temperature and 100 ul of diluted sample was added to 100 ul of assay buffer. Samples were allowed to set for 5 minutes. One hundred microliters of the CSPD substrate solution was then added to each sample, incubated in the dark for 10 minutes and read on a Wallac LKB 1251 tube luminometer.
A stable transfection was performed in pGHRHr/293 cells using the cAMP-responsive SEAP reporter construct, pha180SEAPpur and stable transfectants were selected on the basis of puromycin resistance. pha180SEAPpur was transfected into pGHRHr/293 cells at 1, 2, 4, 8 and 16 ug/ml Opti-MEM using 8 ul of Lipofectin/ml in six well culture plates. After six hours, 1 ml of 20% fetal calf serum in DME (high glucose) was added to the cells. Twenty-four hours post-transfection the cells were subcultured 1:18 and were incubated in 250 ug/ml G418. Forty-eight hours post-transfection the media was replaced with selectable medium containing 250 ug/ml G418 and 1 ug/ml puromycin. Cells were incubated for three weeks and picked using Trypsin-EDTA treated Whatman 3MM paper and placed in 24 well plates. Upon growing stable isolates to confluency in T75 cm^2 culture flasks, pGHRHr/SEAP/293 cells were removed from flasks, plated in 24 well plates at 1×10^5 cells/well and stimulated with various doses of recombinant human GHRH (1-44)NH2. Media was collected and assayed for secreted placental alkaline phosphatase. Time course studies were performed over a 20 hour period to determine the optimal time to remove media samples from the tissue cultures during stimulation with GHRH. Comparisons of synthetic and recombinant human GHRH (1-44)NH2 (10^-13 to 10^-7 M) were also made. Data was analyzed using FOURFIT and ALLFIT, four parameter logistic curve fitting programs.
Sigmoidal dose response curves were fit by four parameter logistic curve fitting using FOURFIT (Grotjan and Steinberger, 1977), with multiple curves being compared using ALLFIT (DeLean et al.,1978). […] For cAMP and SEAP bioassays, a weighted regression analysis was performed with weights assigned as the reciprocal of predicted variance.

[3] = target: T1, porcine GHRH receptor; assay: SEAP reporter expression in pGHRHr/293 cells transiently transfected with pha180SEAP; format: cell-based; set-up: host or cells: human fetal kidney 293 cells (pGHRHr/293), stably expressing, G418-selected; details: transiently transfected pGHRHr/293 cells, 6 hours
Experimental: Samples were allowed to set for 5 minutes.
The efficacy of the cAMP-responsive promoter was evaluated by transient transfection assays using 293 and pGHRHr/293 cells. Transiently transfected 293 cells were stimulated with 1 mM 8-bromo cAMP for 20 hours, while pGHRHr/293 cells were stimulated with various concentrations of recombinant human GHRH for 6 hours.
The ability of GHRH to stimulate the expression of the SEAP reporter cDNA was evaluated using pGHRHr/293 cells transiently transfected with pha180SEAP. Cells were incubated with various doses of GHRH(1-44)NH2 (10^-10 to 10^-6 M) for 6 hours and media was then assayed for SEAP activity.

[4] = target: T1, porcine GHRH receptor; assay: cAMP accumulation assay of the pGHRHr/293 cell line; format: cell-based; set-up: host or cells: human fetal kidney 293 cells (pGHRHr/293), stably expressing, G418-selected; details: pGHRHr/293 cells, 45 minutes, 10^-12 to 10^-6 M
Experimental: The media was then replaced with DME containing 0.1% BSA and 0.1 mM 3-isobutyl-1-methyl-xanthine. Doses of recombinant human GHRH (1-44)NH2 doses, 1×10^-6 M to 1×10^-12 M, were added and the cells were incubated for 45 minutes at 37° C. They were lysed in 60% ethanol and cAMP levels were quantitated by an immunoassay kit (Amersham). After performing the cAMP EIA, data was analyzed using Fourfit, a four parameter logistic curve fitting program.
as §1

[5] = pGHRHr/SEAP/293 cells, 16 hour incubation
[6] = primary rat pituitary cell cultures, 3 hours

Substance	EC50 ([1]; primary rat pituitary cell cultures, 3 hours, read-out: ED50 of GH secretion) [nM]	increase in SEAP expression ([2]; human, pghrhr/seap/293 cells, 16 h) [fold]	minimal detectable dose [2, 5] [pM]	EC50 ([2]; read-out: calculated ED50 of SEAP expression, pGHRHr/SEAP/293 cells, 16 hour incubation) [nM]	ED50 of GH secretion [1, 6]	increase in GH secretion into the medium [1, 6] [fold]	potency relative to synthetic GHRH (times as potent) ([1]; rat pituitary bioassay) [times]	calculated ED50 of SEAP dose-response curves ([2]; after 12, 14, 16 and 18 hours of exposure, not significantly different) [pM]	SEAP activity increase over the 12-16 hour time points ([2]; at 18 hours) [fold]	SEAP activity increase over the 12-16 hour time points ([2]; at 20 hours) [fold]	increase in SEAP activity ([2]; pGHRHr/SEAP/293 #815-4, between 12 and 18 hours of exposure) [fold]	calculated ED50 of SEAP expression [2, 5]	increase in SEAP expression ([2]; pGHRHr/SEAP/293 cells, 16 hour incubation, 10^-13 to 10^-7 M) [fold]	potency relative to synthetic GHRH (times as potent) ([2]; pGHRHr/SEAP/293 reporter bioassay, p<0.0001) [times]	increase in the expression of the reporter protein (SEAP) ([3]; 10^-10 to 10^-6 M) [fold]	ED50 of SEAP reporter expression [3] [pM]	calculated ED50 of increase in intracellular cAMP concentration [4]
synthetic human GHRH (1-44)NH2: Synthetic human GHRH(1-44)NH2 purchased from Peninsula; reference preparation [reference compound]	0.364	9.1	1.47	0.0778													
recombinant human GHRH (1-44)NH2: Recombinant human GHRH(1-44)NH2 obtained from BioNebraska, Inc. as a powder					2.16±1.04×10^-10 M	3.1	1.69±0.67	261	1.3	1.7	4.8	4.26±0.28×10^-11 M	9.1	1.83±0.13	2.5	510	8.4±3.6×10^-9 M
